Holding throughout (experiment): SPR
A general note: In SPR one partner is held on a chip, and binding of the other changes the refractive index at the surface.

Experiment [1] concerns the target T1, rabbit Langerin ectodomain (recombinant) (rabbit).
T1 chain: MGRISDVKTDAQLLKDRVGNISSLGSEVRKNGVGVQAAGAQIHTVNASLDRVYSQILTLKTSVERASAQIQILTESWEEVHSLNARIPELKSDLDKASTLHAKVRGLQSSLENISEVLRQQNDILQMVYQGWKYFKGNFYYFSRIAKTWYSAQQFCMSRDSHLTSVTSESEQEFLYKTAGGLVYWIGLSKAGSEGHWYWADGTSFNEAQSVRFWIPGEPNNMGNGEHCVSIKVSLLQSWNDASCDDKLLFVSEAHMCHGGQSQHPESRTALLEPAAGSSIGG

Experiment [2] deals with mouse Langerin ectodomain (recombinant) (Mus musculus, UniProt Q8VBX4).
The target of experiment [3] is human Langerin ectodomain (recombinant) (Homo sapiens, UniProt Q9UJ71).
Sequence of human Langerin ectodomain (recombinant) (Q9UJ71 65-328): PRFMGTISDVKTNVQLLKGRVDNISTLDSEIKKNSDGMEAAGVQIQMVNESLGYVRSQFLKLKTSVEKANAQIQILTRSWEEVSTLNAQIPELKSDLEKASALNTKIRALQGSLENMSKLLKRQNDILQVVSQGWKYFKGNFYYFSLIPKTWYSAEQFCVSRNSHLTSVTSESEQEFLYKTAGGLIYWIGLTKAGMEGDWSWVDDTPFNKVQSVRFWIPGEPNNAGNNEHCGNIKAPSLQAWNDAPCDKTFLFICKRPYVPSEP

Sequence of mouse Langerin ectodomain (recombinant) (Q8VBX4 63-331): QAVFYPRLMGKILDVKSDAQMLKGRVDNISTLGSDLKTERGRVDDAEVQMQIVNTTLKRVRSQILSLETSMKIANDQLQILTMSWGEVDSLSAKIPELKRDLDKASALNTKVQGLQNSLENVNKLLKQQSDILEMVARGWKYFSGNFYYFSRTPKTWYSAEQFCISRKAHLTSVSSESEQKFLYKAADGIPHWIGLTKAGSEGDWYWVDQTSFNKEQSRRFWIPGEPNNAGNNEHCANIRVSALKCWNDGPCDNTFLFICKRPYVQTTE

B1: LC^3.Env^3 (fibritin-stabilised HIV-1 Env gp140z trimer fused to three scFv of the anti-Langerin 4C7 mAb) (scFv, V domains shown)
VH: QVQLQQSGAELVRPGASVTLSCKASGYTFIDHDMHWVQQTPVYGLEWIGAIDPETGDTGYNQKFKGKAILTADKSSRTAYMELRSLTSEDSAVYYCTIPFYYSNYSPFAYWGQGTLVTVSA
VL: QIVLSQSPAILSASPGEKVTMTCRASSSVSYMHWYQRKPGSSPKPWIYATSNLASGVPARFSGSGSGTSYSLTISRVEAEDAATYYCQQWSSNPLTFGAGTKLELK
For B1, the Kd in experiment [1], in experiment [2] and in experiment [3] was around 3.5 nM throughout.

B2: LC.Env (anti-Langerin 4C7 mAb fused to HIV-1 envelope gp140z from clade C 96ZM651) (antibody, V domains shown)
VH: B1 VH
VL: B1 VL
B2: the Kd in experiment [1], in experiment [2] and in experiment [3] was around 0.7 nM each time.

One may read the Kd as the concentration at which binding is half-saturated.

These data come from paper PMC13157019 (eBioMedicine, 2026).
